Data published in the RNAGym collection of RNA variant scans (doi:10.1073/pnas.2313332121).

B1: TPR t1 (parent)
chain: GACCAAUCUGCCCUCAGAGCUCGAGAACAUCUUCGGAUGCAGAGGAGGCAGGCUUCGGUGGCGCGAUAGCGCCAACGUCCUCAACCUCCAAUGCAUCCCACCACAUGAUGAUGCCUGAAGAGCCUUGGUUUUUUG

Variants of: B1
Assay: polymerase ribozyme fitness, log enrichment relative to wild type (log ratio); higher = more active; in vitro selection for triplet polymerase activity
Method in brief: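 Input and output libraries were sequenced on Illumina after a single in vitro selection round, run in triplicate on PCR-built, transcribed mutant libraries of each subunit of a heterodimeric triplet polymerase ribozyme. Selection annealed libraries to a biotinylated primer, the partner subunit and triplets, incubated them frozen at −7 °C, then gel-excised extended constructs for streptavidin-bead capture and RT-PCR. Genotypes with ≥10 input reads and ≥1 read per output were kept. Fitness is the logarithm, taken in base 2, of genotype enrichment divided by wild-type enrichment, using inverse-variance-weighted replicate averages.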

Variant | polymerase ribozyme fitness (log ratio)
A6U U9G C40G G60U C80U U126C U131A | -3.72
A6U G36A G71U | -0.709
A6U G107U | -3.94
A6U G45U | -1.59
A6U C22G A41C G71U | -3.47
U7A A43U C70G | -6.28
A6U G47A C53U C56A U59A A83U | -1.88
A6U G45C C101U G110C | -5.31
A6U G60U | -0.858
A6U U38G C73U U125A | -1.49
A6U G17C A50C U87A | -4.69
A6U C124U U133G | 0.942
A6U C34U | -4.08
U7A A16C G63A A121U | -0.146
A6U C49A C62U C70G C104A U125A | -7.09
U7A A50U | -0.856
U7A A27U G61C G117U | -5.69
U7A A29G C64U C88A C104A | -1.32
A6U G36U G71A G122U C124A | -1.43
A6U G48U A105U | -2.38
A6U C34G C123U | -5.18
A6U C99U C115U | -7.34
A6U G39U C53G A68G U96G | -7.34
A6U G42U U87A C94A C123G | -1.12

Variant | polymerase ribozyme fitness (log ratio)
A6U G10C | -0.4
A6U G10A | 0.406
A6U G61U G117A | -0.538
A6U C62U | 0.19
A6U G48U C64U U81G | -4.27
A6U C53A C97U G113A | -1.91
A6U G10A C22U C82A | -5.33
U7A A26U C49U C94G C123G | -4.09
A6U G61A | -0.0423
A6U G77U U78C C86U G107C U112G | -5.66
A6U U112A | 0.759
A6U G36C | -1.42
A6U G36U | -1.07
A6U G48U C89A A105U | -6.02
U7A A27U A50U A74C C101U | -4.66
A6U G48U G71C G117A | -3.59
A6U G48U U81C A121G | 0.747
A6U G10C C34A U81A U112C G120C | -3.64
U7A C11G U55A | 0.0928
A6U G48U C72U C94U A111C | -0.448
A6U G45A A50U G113C | -5.5
A6U C72G U78G U130C | -0.0449
A6U G47A C62A C123A | -1.69
U7A A16C | -0.994

Variant | polymerase ribozyme fitness (log ratio)
A6U C79A G110A | -2.78
U7A A29G A83C | -0.648
A6U G117U | -2.79
A6U G60A U81A C99U | -5.5
U7A A50U C82U A111C | -1.72
A6U G57U G61A U87C C99A C124A | -5.7
A6U C62A A111U G122A | -5.22
A6U C49U G60A C94G G113A | -3.92
A6U C70U U129C | -1.04
A6U G48A C123A | 0.913
A6U C53U C73U | 0.296
U7A C8U G60C | -0.91
A6U C13A G36C C123U | 0.00441
A6U G44A C94A | -1.69
U7A C8G G45A | 0.548
A6U C70A C124A | 0.175
A6U G48C U54A C89A C97U | -3.1
A6U C40U G57C G61U A100C G113A | -3.51
A6U U92A | -2.82
A6U C15G A37G | -1.93
A6U G57C G69A A90G | -2.65
U7A C12A A83C | -0.0554
U7A A66G C73G C124A | 0.101
A6U C15A U21G G58A A90G U112C G127A | -4.37

Variant | polymerase ribozyme fitness (log ratio)
U7A A74G C85G | -1.49
A6U G71C | -0.895
A6U C76G C98U | -1.31
A6U G61C U78G U130C | -3.92
A6U G44U U87A A91C C97U | -1.94
A6U G60U G110U | -0.996
A6U G45U C49U C76G | -0.941
A6U U131A | 0.0258
U7A C8A C40U C79G C102U G113C U129G U130A | -7.42
A6U G48C C102U U131C | -1.55
A6U C13U G61C U112A | -1.1
A6U C56G C76U C86A A90G | -1.7
A6U C123U | 1.41
A6U G63C | -0.899
A6U G63A | -0.932
A6U C56U C72U | 0.0866
A6U C13U C72A | 0.0717
A6U C97A | -3.55
A6U C97U | -0.46
A6U C85G | -1.65
A6U C89U | -0.0502
U7A A37U U54G G127A G128U | -3.62
A6U C22A C49U | -4.97
A6U C31G G47A G61A A91U U112A | -7.45

Variant | polymerase ribozyme fitness (log ratio)
A6U U96C C101U G122A | -0.932
A6U U54G C70A | -3.12
U7A A16G U55G G61C C82U | -1.41
A6U G48U G93A G110U | -2.34
A6U C53G C114A U131C | -1.89
A6U G39A C88A | -1.23
U7A A29G G63U C98U | -3.67
A6U C56A | -0.282
A6U G48U C53A C88G C102A | -3.09
A6U C13A U21C G69A C82A | -2.61
U7A A37U C70G U78A | -3.04
A6U C53U C88U | -0.366
A6U G42C A74C C79G C123G U125A | -2.83
A6U C15G C40U G61C C79A | -6.15
A6U C20G C76U G113U | -1.29
U7A C8G G45A U112A | 1.66
A6U G51C A74U G113A C123G | -4.2
A6U U7C C102U G127C U131G | -2.65
U7A C11A | -0.042
A6U G45C C72G C101U G110C | -4.94
A6U C64U | -0.037
A6U G36C G44A G77U C123G | -0.241
A6U G51C C56U | -2.91
U7A | 0.257

Variant | polymerase ribozyme fitness (log ratio)
A6U C94G G120A | 0.554
U7A A26U | -2.56
A6U G44U G61A A103U G122A C124G U125G | -4.72
A6U U9A A26U | -1.87
A6U G93A | -0.555
A6U C15U | -1.43
A6U U109C C124A | -5.26
A6U C86U | -0.389
A6U C56A A105G | -2.46
A6U G69U G113A | -0.642
A6U C56U C97A | -6.51
U7A C11G A37U G60U G93C | -0.83
U7A A18U C22G C72A | -4.55
A6U C70U | -0.544
U7A C11U A27U A90C C98U | -7.09
U7A C11G G44U A50G C94U U96A G117A | -1.92
U7A C11A G117A | -2.2
A6U U38G U59C C86A | -3.66
A6U U9C G47A G63U | -1.85
A6U C53A C62A C97U G113A | -3.13
A6U U7A A16C A46U C76A A84C A100C C124A | -5.09
U7A A84C U116C | -0.218
A6U G48U C72A | 0.271
A6U U106C G107A C114U | -5.44

Variant | polymerase ribozyme fitness (log ratio)
U7A A37U G71U A95G U96A | -0.194
U7A C8A C11G G47U G57U C85A | -2.04
A6U G10A C15U A46C C53G G61U C79A C80U C115G A119G | -4.07
A6U C70U C88A U129C | -1.84
A6U U78C | 0.144
A6U U129A | -1.16
A6U G52A U116C | -1.36
A6U C13G A74U C88U C97U G117C C124G U132A | -3.99
A6U C72A C85U A90G G107U U112A | -4.8
A6U U54C C72U | 0.695
A6U G52A | -2.05
A6U G52U | -1.52
A6U G71U G110A G127U U133G | -2.25
A6U G48U C56G C82A | -1.65
A6U C13G G69U C88U C97U G117C C124G U132A | -1.66
U7A A18G C20A G39A C70U U116C G120U C123U C124A | -6.7
U7A C11G C12U A18C A29G G47U G60C | -5.79
A6U C72G C73U A90U C98G C102U A108U C123G | -7.4
U7A A41G | 0.181
A6U U30C G39U C97U C104U | -4
A6U U33A | -4.02
A6U G48U C53A | -0.649
A6U C20A G69U C85A | -4.42
